What was measured:
[1] = target: the molecule itself; experiment: crystal structure; lipidic cubic phase (monoolein with 10% cholesterol), without any antibody Fab fragment; 100 mM Tris pH 8.5, 100 mM sodium malonate, 30% PEG 400, 2.5% MPD; 16°C
[2] = target: the molecule itself; experiment: DEER spectroscopy; one MTSSL spin label per subunit, inter-subunit distance distributions; pH 7.5 and pH 4.5; 83 K, Q-band; four-pulse protocol (five-pulse for position 374)

| Protein | binding result [1] | binding result [2] |
| --- | --- | --- |
| CLC-ec1 QQQ mutant (E148Q/E203Q/E113Q) (natural protein, E. coli, CLC-ec1, prokaryotic (E. coli) CLC Cl-/H+ exchange transporter, from plasmid pASK-CLC-ec1; Helix A (N-terminal) has no density in the model; also called ClC-ec1 triple mutant (E113Q, E148Q, E203Q)) MKTDTPSLETPQAARLRRRQLIRQLLERDKTPLAILFMAAVVGTLVGLAAVAFDKGVAWLQNQRMGALVHTADNYPLLLTVAFLCSAVLAMFGYFLVRKYAPEAGGSGIPEIQGALEDQRPVRWWRVLPVKFFGGLGTLGGGMVLGRQGPTVQIGGNIGRMVLDIFRLKGDEARHTLLATGAAAGLAAAFNAPLAGILFIIEQMRPQFRYTLISIKAVFIGVIMSTIMYRIFNHEVALIDVGKLSDAPLNTLWLYLILGIIFGIFGPIFNKWVLGMQDLLHRVHGGNITKWVLMGGAIGGLCGLLGFVAPATSGGGFNLIPIATAGNFSMGMLVFIFVARVITTLLCFSSGAPGGIFAPMLALGTVLGTAFGMVAVELFPQYHLEAGTFAIAGMGALLAASIRAPLTGIILVLEMTDNYQLILPMIITGLGATLLAQFTGGKPLYSAILARTLAKQEAEQLARSKAAS | binds | – |
| D417C/QQQ CLC-ec1 (cysteine-less background), spin-labeled (natural protein, E. coli, MTSSL spin label on the substituted cysteine at 417, CLC-ec1, prokaryotic (E. coli) CLC Cl-/H+ exchange transporter, from plasmid pASK-CLC-ec1; Helix P; source: purified under reducing conditions, then labeled with MTSSL) MKTDTPSLETPQAARLRRRQLIRQLLERDKTPLAILFMAAVVGTLVGLAAVAFDKGVAWLQNQRMGALVHTADNYPLLLTVAFLASAVLAMFGYFLVRKYAPEAGGSGIPEIQGALEDQRPVRWWRVLPVKFFGGLGTLGGGMVLGRQGPTVQIGGNIGRMVLDIFRLKGDEARHTLLATGAAAGLAAAFNAPLAGILFIIEQMRPQFRYTLISIKAVFIGVIMSTIMYRIFNHEVALIDVGKLSDAPLNTLWLYLILGIIFGIFGPIFNKWVLGMQDLLHRVHGGNITKWVLMGGAIGGLAGLLGFVAPATSGGGFNLIPIATAGNFSMGMLVFIFVARVITTLLSFSSGAPGGIFAPMLALGTVLGTAFGMVAVELFPQYHLEAGTFAIAGMGALLAASIRAPLTGIILVLEMTCNYQLILPMIITGLGATLLAQFTGGKPLYSAILARTLAKQEAEQLARSKAAS | – | binds |
| WT CLC-ec1 (cysteine-less background) D417C, spin-labeled (natural protein, E. coli, MTSSL spin label on the substituted cysteine at 417, CLC-ec1, prokaryotic (E. coli) CLC Cl-/H+ exchange transporter, from plasmid pASK-CLC-ec1; Helix P; source: purified under reducing conditions, then labeled with MTSSL) MKTDTPSLETPQAARLRRRQLIRQLLERDKTPLAILFMAAVVGTLVGLAAVAFDKGVAWLQNQRMGALVHTADNYPLLLTVAFLASAVLAMFGYFLVRKYAPEAGGSGIPEIEGALEDQRPVRWWRVLPVKFFGGLGTLGGGMVLGREGPTVQIGGNIGRMVLDIFRLKGDEARHTLLATGAAAGLAAAFNAPLAGILFIIEEMRPQFRYTLISIKAVFIGVIMSTIMYRIFNHEVALIDVGKLSDAPLNTLWLYLILGIIFGIFGPIFNKWVLGMQDLLHRVHGGNITKWVLMGGAIGGLAGLLGFVAPATSGGGFNLIPIATAGNFSMGMLVFIFVARVITTLLSFSSGAPGGIFAPMLALGTVLGTAFGMVAVELFPQYHLEAGTFAIAGMGALLAASIRAPLTGIILVLEMTCNYQLILPMIITGLGATLLAQFTGGKPLYSAILARTLAKQEAEQLARSK | – | binds |

From publication PMC7253180, “A CLC-ec1 mutant reveals global conformational change and suggests a unifying mechanism for the CLC Cl^–/H^+ transport cycle” (eLife, 2020)
